Source: US20250000944A1, “USE OF RECOMBINANT CALRETICULIN IN HAIR GROWTH, HAIR BREEDING, HAIR PROTECTION OR ANTI-HAIR LOSS AND RELATED PRODUCT” (BEIJING YITUBAIHUI BIOTECH CO., LTD, priority 2021, published 2025)
“Also recorded” adds a separate entry of the source.

Tested on: androgenic alopecia model
Assay: First experiment: testosterone-induced androgenic alopecia model, hair observed by dermatoscope and scanning electron microscopy
Assay type: in vivo, C57BL/6 male mice
Method: Experimental animals: C57BL/6 male mice, 6-7 weeks old, weighing (20±2) g, were provided by Beijing Vital River Laboratory Animal Technology Co. Ltd., with the animal license number of SCXK (Beijing) 2021-0006. They were kept in a 12 h light/12 h dark environment, with free access to food and water. The mice were divided into normal NC group (NC), model group (Model), positive control-minoxidil group (Minoxidil), positive control-finasteride group (Finasteride), experimental group A and experimental group B. The proteins were stored in a −70° C. refrigerator and diluted with physiological saline when used. Experimental group A used rh-CRT-1, with a concentration of 0.21 mg/ml. Experimental group B used rh-CRT-2, with a concentration of 0.21 mg/ml. There were 6 mice in each group.
The main reagents used are as follows: 4% paraformaldehyde (Beijing Solarbio Technology Co., Ltd., China), isoflurane (Rayward, China), testosterone (Shanghai Standard Biotechnology Co., Ltd., China), paraffin sectioner (Thermo, USA), small animal anesthesia machine (Rayward, China), and inverted microscope (Olympus, Japan).
Modeling and drug administration: First, the androgenic alopecia model was established. One day before the modeling, the hair in the central part of the back of the experimental animal was removed with a skin preparation knife, and the prepared area was depilated with a depilatory cream. After 24 hours of depilation, the modeling agent (testosterone, 5.0 mg/mL) was subcutaneously injected into the neck of the mice in groups except the NC group, with a total dose of 0.2 mL/mouse. The mice in the NC group were injected with an equal amount of normal saline. After modeling, the mice were administrated with drugs. The NC group was injected with normal saline once a day, 0.15 mL/mouse each time. The experimental group A, experimental group B and positive control group were injected with modeling agent (testosterone), and administrated with drugs after 2 hours, and the dose of modeling agent was 0.2 mL/mouse. The experimental group A and experimental group B were injected on the back once a day, 0.15 mL/mouse each time. The positive control minoxidil group was applied 5% minoxidil externally, 0.01 mL/mouse, once a day. The positive control finasteride group was applied finasteride at a concentration of 13 μg/mL, 0.2 mL/mouse, once a day.

B1: CRT-2: fragment (1-349 aa) of recombinantly expressed CRT, amino acid sequence SEQ ID NO: 9 (protein)
chain: EPAVYFKEQFLDGDGWTSRWIESKHKSDFGKFVLSSGKFYGDEEKDKGLQTSQDARFYALSASFEPFSNKGQTLVVQFTVKHEQNIDCGGGYVKLFPNSLDQTDMHGDSEYNIMFGPDICGPGTKKVHVIFNYKGKNVLINKDIRCKDDEFTHLYTLIVRPDNTYEVKIDNSQVESGSLEDDWDFLPPKKIKDPDASKPEDWDERAKIDDPTDSKPEDWDKPEHIPDPDAKKPEDWDEEMDGEWEPPVIQNPEYKGEWKPRQIDNPDYKGTWIHPEIDNPEYSPDPSIYAYDNFGVLGLDLWQVKSGTIFDNFLITNDEAYAEEFGNETWGVTKAAEKQMKDKQDEEQR
Q: Which results are given for B1?
A: changes in hair observed by dermatoscope (21 days, compared with the model group (frizzy hair), proteins 0.21 mg/ml injected on the back once a day, minoxidil 5% external, finasteride 13 μg/mL): smoother; hair cuticles observed by scanning electron microscopy (21 days, proteins 0.21 mg/ml injected on the back once a day, minoxidil 5% external, finasteride 13 μg/mL, listed as experimental group B): arranged neatly; also recorded: denser than those of group A; hair shafts (scanning electron microscopy, FIG. 18 vs FIG. 19) (first experiment, comparison of experimental groups B and A): thicker than those of experimental group A
